{"source": "patent US20250334585A1", "biological_target": "immobilized gingipain (GP protein) of the anti-gingipain ELISA of Example 18", "assay": "ELISA on immobilized gingipain", "data": [{"binder": "KB001 (antibody, V domains shown) VH: EVQLKQSGPGLVAPSQSLSITCTVSGFSLSIYSVHWVRQPPGKGLEWLGMIWGGGSSDYNSALKSRLSISKDNSKSQVFLKMNSLQTDDTAMYYCARNGNFYAMDYWGQGTSVTVSS VL: QIVLTQSPAIMSASLGERVTMTCTASSSVSSSFLHWYQQKPGSSPQLWIYSTSNLASGVPARFSGSGSGTSYSLTISSMEAEDAATYYCHQYHHSPYIYTFGGGTKLEIKR", "values": [{"measurement": "detectable level of concentration", "value": 3, "unit": "ng/mL"}]}]}
